{"source": "paper PMC8394153", "about": "“Novel Glutamate–Putrescine Ligase Activity in Haloferax mediterranei: A New Function for glnA-2 Gene” (Biomolecules, 2021)", "proteins": {"B1": {"name": "recombinant GlnA-2 protein (HFX_1688) from Haloferax mediterranei (enzyme, UniProt I3R584 1-446, looked up)", "chain": "MSDTSTVKSQCEDQNIDLIRLLYVTPSGVIQANTVDVSEVDAAVESGVTLSEVIQVYDAFACRNRNSRFDAVGEVHLCPDPETFRPLPYADRAGAMLCNIRTLDGEPWDVDSRSSLQSVERDLRAKGLSPQVAFESEFSLFSRDGDGKINRGDEAGAYRTESIRGTHDAILHIVDALKAQGIDVKKYHPEFSPGKHEIVTGHHTGLEAADEHLLLRETVKSVAEQDGYQATFLPKPFDDGTNGCHINVSLWNGENQFFDPNHGDISETARQFIAGVLDHAPAVLALTAPTVNSYSRLQPRHGAAGYICWGWLNREALIRVPAPAQGREADSTRIEFRGADNTANPYLGLIGLLAAGNDGIERELEPPEPVSVDPCDLTDAQRTAKGIKRLPQTLGEALDALETNEVLREALGPDLFDAYVEVKRNHWKLFTESAGAWQRERLRNLY", "notes": "GlnA-2 of Haloferax mediterranei R4 (ATCC 33500T), locus HFX_1688, annotated as glutamine synthetase; monomer 55 kDa by SDS-PAGE; also called glutamate–putrescine ligase; HFX_01688; source: heterologous expression in E. coli, purified (gel filtration); copies: 12"}}, "target": "the molecule itself", "experiment": "SEC; HiPrep 16/60 Sephacryl S-300 High-Resolution column; eluted in 20 mM Tris-HCl, 2 M NaCl, 10 mM MgCl2, pH 7.5, 0.5 mL/min, room temperature; standard proteins 12.5 to 678 kDa; oligomer size from 667 kDa against a 55 kDa monomer (SDS-PAGE)"}
{"protein": "B1", "values": [{"measurement": "stoichiometry N", "value": 12}]}
